The values below are quoted from earlier work in paper PMC8391295.

The target in the data set is CD4 (Homo sapiens) (UniProt P01730).

pKd: −log10 of the molar value.

Chain of Prolactin-inducible protein (P12273 29-146): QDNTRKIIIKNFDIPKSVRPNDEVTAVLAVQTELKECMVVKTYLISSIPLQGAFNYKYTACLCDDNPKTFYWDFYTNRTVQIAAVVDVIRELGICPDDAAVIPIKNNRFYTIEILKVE

Turning to “Prolactin-inducible protein (from UniProt P12273)”, the pKd – broadly, −log10 of the Kd, conventionally taken in molar units – was 8.22.
